These are literature values, as cited in paper PMC4414177, “A novel orally active water-soluble inhibitor of human glutathione transferase exerts a potent and selective antitumor activity against human melanoma xenografts” (Oncotarget, 2015).

This data set has as its target GSTP1-1 (Homo sapiens) (UniProt P09211). Description: ELISA. In general terms: In an ELISA, binding on a coated surface is turned into a signal by an enzyme label.

GSTP1-1 (Homo sapiens), sequence (P09211 2-210): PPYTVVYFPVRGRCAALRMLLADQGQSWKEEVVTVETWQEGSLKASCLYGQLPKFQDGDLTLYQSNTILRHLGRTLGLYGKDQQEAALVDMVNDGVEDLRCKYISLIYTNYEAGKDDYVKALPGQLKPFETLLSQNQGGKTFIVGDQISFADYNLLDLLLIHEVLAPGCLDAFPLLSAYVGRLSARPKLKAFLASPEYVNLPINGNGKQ
TRAF2 CTD, sequence (Q12933 310-501): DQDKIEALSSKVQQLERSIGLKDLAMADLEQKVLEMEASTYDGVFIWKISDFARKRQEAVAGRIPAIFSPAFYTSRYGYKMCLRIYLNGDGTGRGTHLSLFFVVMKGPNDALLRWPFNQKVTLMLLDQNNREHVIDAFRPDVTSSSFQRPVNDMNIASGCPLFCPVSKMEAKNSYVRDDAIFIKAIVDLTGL
JNK1α2, sequence (P45983 whole entry): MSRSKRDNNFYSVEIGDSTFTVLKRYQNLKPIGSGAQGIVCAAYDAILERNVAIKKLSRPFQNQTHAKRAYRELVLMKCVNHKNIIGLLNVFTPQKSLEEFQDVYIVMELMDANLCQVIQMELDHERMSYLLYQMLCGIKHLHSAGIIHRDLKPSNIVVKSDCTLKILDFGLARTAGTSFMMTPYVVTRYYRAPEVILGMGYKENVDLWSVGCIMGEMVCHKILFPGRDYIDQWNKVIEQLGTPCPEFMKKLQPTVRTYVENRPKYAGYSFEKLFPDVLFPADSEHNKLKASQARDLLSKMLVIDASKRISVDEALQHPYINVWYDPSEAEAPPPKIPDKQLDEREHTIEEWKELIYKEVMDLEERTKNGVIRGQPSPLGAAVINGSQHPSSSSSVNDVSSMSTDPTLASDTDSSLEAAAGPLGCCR

By Kd is commonly meant the equilibrium constant for the complex coming apart. For TRAF2 CTD (from UniProt Q12933), the Kd was over 5 µM.
JNK1α2 (from UniProt P45983): the Kd was over 10 µM.
